Target: human c-Mpl receptor (TPO receptor), full-length, transfected into IL-3 dependent murine 32D cells (human) (UniProt P40238)
Experiment: cell-based or functional assay

Molecule | potency in TPO-dependent cell-proliferation assay, against the monomer [fold]
TMP tandem dimer with linker of 10 glycine residues (peptide) | > 1000
TMP tandem dimer with linker of 14 glycine residues (peptide) | > 1000
TMP tandem dimer with linker of 9 glycine residues (peptide) | > 1000

Target: T1, human c-Mpl receptor (TPO receptor), full-length, transfected into IL-3 dependent murine 32D cells (human, UniProt P40238 26-635)
T1 sequence (looked up): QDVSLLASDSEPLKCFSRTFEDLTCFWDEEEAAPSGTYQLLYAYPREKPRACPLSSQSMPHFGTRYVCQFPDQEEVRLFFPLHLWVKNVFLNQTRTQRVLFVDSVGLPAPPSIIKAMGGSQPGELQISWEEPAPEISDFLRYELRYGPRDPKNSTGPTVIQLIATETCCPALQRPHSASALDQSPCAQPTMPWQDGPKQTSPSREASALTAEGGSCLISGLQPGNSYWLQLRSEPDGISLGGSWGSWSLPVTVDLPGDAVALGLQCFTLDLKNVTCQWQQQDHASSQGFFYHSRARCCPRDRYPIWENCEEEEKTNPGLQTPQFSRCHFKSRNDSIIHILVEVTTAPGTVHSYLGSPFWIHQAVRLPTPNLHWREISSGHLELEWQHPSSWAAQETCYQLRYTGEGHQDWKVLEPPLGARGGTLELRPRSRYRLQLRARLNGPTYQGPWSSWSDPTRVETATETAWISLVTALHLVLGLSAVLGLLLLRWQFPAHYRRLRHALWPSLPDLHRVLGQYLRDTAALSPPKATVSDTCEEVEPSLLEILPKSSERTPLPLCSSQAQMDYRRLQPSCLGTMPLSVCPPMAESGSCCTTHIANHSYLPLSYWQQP
Experiment: cell-based or functional assay

Molecule | potency in TPO-dependent cell-proliferation assay, against the monomer [fold] | activity in cell-proliferation assay, against the GGGG-linked analog [fold less active] | potency in cell-proliferation assay, against the monomer [fold]
IEGPTLRQWLAARAGIEGPTLRQWLAARA [TMP tandem dimer with linker of 1 glycine residue] | > 1000 | – | –
IEGPTLRQWLAARAGGGGGGGIEGPTLRQWLAARA [TMP tandem dimer with linker of 7 glycine residues] | > 1000 | – | –
IEGPTLRQWLAARAGGGGGGGGIEGPTLRQWLAARA [TMP tandem dimer with linker of 8 glycine residues] | > 1000 | – | –
IEGPTLRQWLAARAGGGGGGIEGPTLRQWLAARA [TMP tandem dimer with linker of 6 glycine residues] | > 1000 | – | –
IEGPTLRQWLAARAGGGIEGPTLRQWLAARA [TMP tandem dimer with linker of 3 glycine residues] | > 1000 | – | –
IEGPTLRQWLAARAGGIEGPTLRQWLAARA [TMP tandem dimer with linker of 2 glycine residues] | > 1000 | – | –
IEGPTLRQWLAARAGPNGIEGPTLRQWLAARA [peptide 13, TMP tandem dimer with GPNG linker] | – | > 10 | ~100
IEGPTLRQWLAARAGGGGIEGPTLRQWLAARA [TMP tandem dimer with linker of 4 glycine residues] | > 1000 | – | –
IEGPTLRQWLAARAIEGPTLRQWLAARA [TMP tandem dimer without linker (0 glycine residues)] | > 1000 | – | –
IEGPTLRQWLAARAGGGGGIEGPTLRQWLAARA [TMP tandem dimer with linker of 5 glycine residues] | > 1000 | – | –
